Assays:
Experiment in all cases: cell-based or functional assay
[1] = target: Hemagglutinin (HA) of Influenza A virus A/Parma/5/06 (Wisconsin-like) H3N2 (Influenza A virus A/Parma/05/06 H3N2)
[2] = target: Hemagglutinin (HA) of Influenza A virus A/Puerto Rico/8/34 H1N1 (PR8 virus) (Influenza A virus A/Puerto Rico/8/34 H1N1) (UniProt P03452)
[3] = target: Hemagglutinin (HA) of Influenza A virus A/Roma-ISS/2/08 (Brisbane-like) (oseltamivir-sensitive) H1N1 (Influenza A virus A/RomaISS/2/08 H1N1)
[4] = target: Hemagglutinin (HA) of Influenza A virus A/Turkey/Italy/2676/99 H7N1 (Influenza A virus A/Turkey/Italy/2676/99 H7N1)

Binder	activity on viral hemagglutination (HI) [1] [nM]	activity on viral hemagglutination (HI) [2] [nM]	activity on viral hemagglutination (HI) [3] [nM]	activity on viral hemagglutination (HI) [4] [fM]
bLf C-lobe (aa 345-689) (protein) VVWCAVGPEEQKKCQQWSQQSGQNVTCATASTTDDCIVLVLKGEADALNLDGGYIYTAGKCGLVPVLAENRKSSKHSSLDCVLRPTEGYLAVAVVKKANEGLTWNSLKDKKSCHTAVDRTAGWNIPMGLIVNQTGSCAFDEFFSQSCAPGADPKSRLCALCAGDDQGLDKCVPNSKEKYYGYTGAFRCLAEDVGDVAFVKNDTVWENTNGESTADWAKNLNREDFRLLCLDGTRKPVTEAQSCHLAVAPNHAVVSRSDRAAHVKQVLLHQQALFGKNGKNCPDKFCLFKSETKNLLFNDNTECLAKLGGRPTYEEYLGTEYVTAIANLKKCSTSPLLEACAFLTR	6	12	10	93.1
bLf C-lobe (aa 285-689) (protein) SFQLFGSPPGQRDLLFKDSALGFLRIPSKVDSALYLGSRYLTTLKNLRETAEEVKARYTRVVWCAVGPEEQKKCQQWSQQSGQNVTCATASTTDDCIVLVLKGEADALNLDGGYIYTAGKCGLVPVLAENRKSSKHSSLDCVLRPTEGYLAVAVVKKANEGLTWNSLKDKKSCHTAVDRTAGWNIPMGLIVNQTGSCAFDEFFSQSCAPGADPKSRLCALCAGDDQGLDKCVPNSKEKYYGYTGAFRCLAEDVGDVAFVKNDTVWENTNGESTADWAKNLNREDFRLLCLDGTRKPVTEAQSCHLAVAPNHAVVSRSDRAAHVKQVLLHQQALFGKNGKNCPDKFCLFKSETKNLLFNDNTECLAKLGGRPTYEEYLGTEYVTAIANLKKCSTSPLLEACAFLTR	6	24	10	93.1
